Patent publication US20250026797A1 (GOVERNMENT OF THE UNITED STATES OF AMERICA AS REPRESENTED …, published 2025)
*: point of attachment. Biotin = O=C1N[C@H]2[C@H](CS[C@H]2CCCCC(=O)*)N1

Target: T1, wild-type human GID4 fragment (residues 116-300), purified with N-terminal His-tag (human, UniProt Q8IVV7 116-300)
T1 construct: Expressed in E. coli BL21(DE3), nickel-column purified; also called wild-type GID4; native GID4; not shown: N-terminal six-histidine tag and TEV protease recognition site from the pET21(+) construct
T1 sequence: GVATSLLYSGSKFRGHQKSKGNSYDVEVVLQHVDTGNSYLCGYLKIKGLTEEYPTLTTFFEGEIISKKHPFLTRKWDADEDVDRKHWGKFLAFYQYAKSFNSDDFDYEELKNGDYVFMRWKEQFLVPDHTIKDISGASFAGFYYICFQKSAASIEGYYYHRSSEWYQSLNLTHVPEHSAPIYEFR
Experiment: BLI, biotinylated peptide on streptavidin biosensor, 10 µmol/L protein
Procedure: High-throughput kinetic measurements were taken using Octet Red96e system with Octet Streptavidin (SA) Biosensors in 96-well format. The highest concentration of protein was prepared by mixing 25% of the total volume with 0.4% BSA in dialysis buffer (1×PBS) and completing subsequent dilutions with 0.1% BSA in dialysis buffer. The SA biosensors were hydrated for 10 min in the dialysis buffer with 0.1% BSA then loaded with NH₂-XXXVKSK(biotin)-COOH (where X are residues specified in the experiment and figures) by moving the sensors into wells with 10 μmol/L of the biotinylated peptide and incubating for 2 min. Unbound peptide was removed by incubating in the dialysis buffer with 0.1% BSA for 2 min in the next wells. The association of GID4 wild-type and variants were then measured by incubating the biosensors in wells with the proteins for 10 min and then dissociation measured by moving the sensors into new wells with dialysis buffer with 0.1% BSA for another 10 min. All wells contained 200 μL of specified solution. The measurements were analyzed with instrument software Data Analysis HT (Version 12).
The association and dissociation of the GID4 wild-type and the six variants to the PGLVKSK(biotin) peptide were evaluated using BLI. BLI is an optical technique that can measure interaction between protein in solution ad peptide immobilized on the biosensor tip. […] The S283F variant has an apparent faster dissociation rate compared to the other singe mutation variants. The apparent faster dissociation rate due to S283F mutation is also present in A252V-S283F mutant, when compared to the A252V-S253T mutant. […] The increase in the BLI response and shift in dissociation rate can be beneficial as an Nt-Pro recognizing protein; differences in off-rate can be used as method to distinguish different Nt-amino acids.

B1: NH2-PGLVKSK(biotin)-COOH peptide (peptide)
peptide: H-PGLVKSK(Biotin)-OH
SMILES: CC(C)C[C@H](NC(=O)CNC(=O)[C@@H]1CCCN1)C(=O)N[C@H](C(=O)N[C@@H](CCCCN)C(=O)N[C@@H](CO)C(=O)N[C@@H](CCCCNC(=O)CCCC[C@@H]1SC[C@@H]2NC(=O)N[C@@H]21)C(=O)O)C(C)C
notes: Immobilised on streptavidin biosensors in BLI; in solution in the yeast display sorts; also called Nt-Pro peptide; target peptide
B1: binds.
